Series [1] concerns the target T1, YLOV (Apo-YLOV; LOV domain of YtvA, aa 1-128) (Bacillus subtilis, UniProt O34627, M1G).
T1 construct: gene pfyP; LOV domain with N-terminal cap, aa 1-128; apo form in monomer-dimer equilibrium; 15N-labelled for ITC
T1 sequence (O34627 1-128 M1G): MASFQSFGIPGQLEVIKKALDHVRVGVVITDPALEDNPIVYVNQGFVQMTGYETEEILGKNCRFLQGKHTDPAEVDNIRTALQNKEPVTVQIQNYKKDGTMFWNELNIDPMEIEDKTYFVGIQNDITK
In words: isothermal titration calorimetry. The class given is binding. The note with it: 25 °C; 20 mM Tris-HCl pH 7.5, 150 mM NaCl, 500 µM TCEP; dark; apoprotein titrated into flavin; single-site global fit; brackets 95% confidence interval. The source says: isothermal titration calorimetry on YLOV (Apo-YLOV; LOV domain of YtvA, aa 1-128)
On the technique in general: ITC needs no label: the signal is the heat of the interaction.

Series [2] deals with YtvA (Bacillus subtilis) (UniProt O34627). The note with it: cited from earlier work.
Series [3] concerns the target YtvA LOV domain 21-147 (Bacillus subtilis) (UniProt O34627). The note with it: cited from earlier work.
Series [4] concerns the molecule itself. Description: AUC; sedimentation velocity, 45,000 rpm, 20 °C, absorbance at 280 nm; Apo-YtvA at 15, 30 and 60 µM in buffer H (20 mM K-phosphate pH 6.5, 50 mM NaCl, 5 mM DTT, 0.1% azide); c(S) analysis with Sedfit; dimer to monomers.
Series [5] concerns the molecule itself. Description: AUC; sedimentation velocity, 45,000 rpm, 25 °C, absorbance at 280 nm; Apo-YLOV at 17.5, 35 and 70 µM in buffer G (20 mM Tris-HCl pH 7.5, 150 mM NaCl, 500 µM TCEP); c(S) analysis with Sedfit; dimer to monomers; the KD is called only an estimate.

Where only a bound is given, the exact number is not on record here.

The term Kd denotes the equilibrium constant for the complex coming apart. By stoichiometry N is commonly meant the number of molecules, sites or subunits per partner or assembly.

Take `Cc1cc2nc3c(=O)[nH]c(=O)nc-3n(C[C@H](O)[C@H](O)[C@H](O)COP(=O)(O)OP(=O)(O)OC[C@H]3O[C@@H](n4cnc5c(N)ncnc54)[C@H](O)[C@@H]3O)c2cc1C` [FAD]: binding in series [1] was put at a Kd of 224 nM.

In turn, `Cc1cc2nc3c(=O)[nH]c(=O)nc-3n(C[C@H](O)[C@H](O)[C@H](O)COP(=O)(O)O)c2cc1C` [FMN] showed a Kd in series [1] of 715 nM.

In series [1], `Cc1cc2nc3c(=O)[nH]c(=O)nc-3n(C[C@H](O)[C@H](O)[C@H](O)CO)c2cc1C` [RF] came in with a Kd of 351 nM.

Regarding YtvA (from UniProt O34627), the Kd in series [2] is < 300 nM.

“YtvA LOV domain 21-147 (from UniProt O34627)”: the Kd in series [3] is < 200 nM.

B1: Apo-YtvA (deflavinated full length YtvA, aa 1 – 261) (natural protein, Bacillus subtilis, UniProt O34627 1-261, looked up)
chain: GASFQSFGIPGQLEVIKKALDHVRVGVVITDPALEDNPIVYVNQGFVQMTGYETEEILGKNCRFLQGKHTDPAEVDNIRTALQNKEPVTVQIQNYKKDGTMFWNELNIDPMEIEDKTYFVGIQNDITKQKEYEKLLEDSLTEITALSTPIVPIRNGISALPLVGNLTEERFNSIVCTLTNILSTSKDDYLIIDLSGLAQVNEQTADQIFKLSHLLKLTGTELIITGIKPELAMKMNKLDANFSSLKTYSNVKDAVKVLPIM
notes: YtvA, blue-light photoreceptor of Bacillus subtilis, full length, residues 1-261 (LOV domain aa 21-126, Jα-helix aa 127-147, STAS domain aa 148-261); Met1 replaced by the Gly left after TEV cleavage; source: TEV cleavage; not shown: His tag, N-terminal, cleaved
Consider B1, for which the “stoichiometry N” value in series [4] stood at 2.

B2: Apo-YLOV (deflavinated extended LOV domain of YtvA, aa 1 – 128) (domain or fragment, Bacillus subtilis, UniProt O34627 1-128, looked up)
chain: GASFQSFGIPGQLEVIKKALDHVRVGVVITDPALEDNPIVYVNQGFVQMTGYETEEILGKNCRFLQGKHTDPAEVDNIRTALQNKEPVTVQIQNYKKDGTMFWNELNIDPMEIEDKTYFVGIQNDITK
notes: YtvA, blue-light photoreceptor of Bacillus subtilis, residues 1-128 (N-terminal cap and LOV domain); TEV cleavage leaves a Gly at the N-terminus; the forward primer reads Gly-Ala-Ser-Phe-Gln, so the Gly stands in the place of Met1; also called YtvA-LOV domain; not shown: His tag, N-terminal, cleaved
As for B2, in series [5], the Kd is ~14000 nM and the “stoichiometry N” value was 2.

The values are drawn from article PMC3836802, “LOV Takes a Pick: Thermodynamic and Structural Aspects of the Flavin-LOV-Interaction of the Blue-Light Sensitive Photoreceptor YtvA from Bacillus subtilis” (PLoS ONE, 2013).
